Assay results taken from the supplement of paper PMC9170038.

System: MS2 coat protein
Test: apparent KD of MS2 coat protein; designed switch direction (-1 OFF switch, 1 ON switch): 1; higher = weaker reporter binding
Summary of the method: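 Designed RNA switches were transcribed on Illumina chips by stalled E. coli RNA polymerase and titrated with SNAP-549-labelled MS2 coat protein from 0.7 or 1.5 nM, doubling to 3 µM. Step length ran from 0.8–1.5 h at the lowest concentration to 10–20 min at the highest. The apparent KD is the median over clusters for each design, from curve-fitted normalised cluster fluorescence.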

[1] = input ligand: microRNA oligo, concentration not stated
[2] = Eterna round: R95, input ligand: FMN 200 uM
[3] = Eterna round: R95, input ligand: microRNA oligo, concentration not stated
[4] = Eterna round: R95, input ligand: none

UGUUGUUAAUUAGGAUAUGGGCACAUGAGGAUCACCCAUGUAUUUUCGAUGCUAUGUGGAGACGUCUAGAAGGGAUGGCUAACA [SameState NG2 #88] (Eterna round: R96, puzzle: Same State NG 2)
apparent KD of MS2 coat protein (input ligand: FMN 200 uM): 254 nM
apparent KD of MS2 coat protein [1]: 151 nM
apparent KD of MS2 coat protein (input ligand: none): 158 nM

ACAGAGGGAAGACAGGAUAUUCGCGAUGGCACAUGAGGAUCACCCAUGUUUUGAGCACAUAAACAGAAGAAGGGUUAAAACUCAG [Veceanve] (puzzle: Same State 2)
apparent KD of MS2 coat protein [2]: 21.4 nM
apparent KD of MS2 coat protein [3]: 132 nM
apparent KD of MS2 coat protein [4]: 215 nM

AGUCCAGCCAGAGCUGGACAAAAGCAUGUACAUGAGGAUCACCCAUGUCAUGUACAAGCUUUUUGCUCGUCUUAAAA [Mat - hsa-mir-208a - Mod of JL - D2] (puzzle: Sensor for hsa-mir-208a)
apparent KD of MS2 coat protein [2]: 415 nM
apparent KD of MS2 coat protein [3]: 13.7 nM
apparent KD of MS2 coat protein [4]: 523 nM

UGUUGUAUUACAGGAUAUCUAUUAUUUGUAUUUAGAGAAGGGUAUUCACAUGAGGAUCACCCAUGUAUAUACGAGGAAGUUGUG [JMF's solution 20] (Eterna round: R96, puzzle: Same State NG 1)
apparent KD of MS2 coat protein [1]: 42.4 nM

GGAAAGAGGUAAGGAUAUGCAUGGCUGGGACAUGAGGAUCACCCAUGUAAUAGAAGAAAUCUAGGGUAGAAGGUACAAGGAAGG [AK SSNG2-V2-9] (Eterna round: R96, puzzle: Same State NG 2)
apparent KD of MS2 coat protein (input ligand: FMN 200 uM): 1110 nM
apparent KD of MS2 coat protein [1]: 367 nM
apparent KD of MS2 coat protein (input ligand: none): 450 nM

AUGCCAAAGCGAGGAUAUGGAGCCUUAUUGGCUCCAGAAGGUGUGACAUGAGGAUCACCCAUGUGGCAGUGGUCUAAUGACCAC [Eli NG1ss - 41] (Eterna round: R96, puzzle: Same State NG 1)
apparent KD of MS2 coat protein (input ligand: FMN 200 uM): 63.3 nM
apparent KD of MS2 coat protein [1]: 64.6 nM
apparent KD of MS2 coat protein (input ligand: none): 86.7 nM

UCUUGGUUUUUGCUCGUUUUUUGUGUUGAACAUGAGGAUCACCCAUGUAUUGUACGGUCCAGUUUGAUAGUGGUCCG [JMF 33] (puzzle: Sensor for hsa-mir-208a)
apparent KD of MS2 coat protein [2]: 25.6 nM
apparent KD of MS2 coat protein [3]: 13.6 nM
apparent KD of MS2 coat protein [4]: 29.9 nM

AAAAAACAUGAGGAUCACCCAUGUCAAAAGACAUGAGGAUAUGUACAGACUUCGGUCUGUACAGAAGGCAUGAAAA [salish99_ss1_r3_093] (Eterna round: R96, puzzle: Same State 1)
apparent KD of MS2 coat protein [1]: 359 nM

GUAGCAUACCGAGGAUAUUCAUAUAAUAACAUGAGGAUCACCCAUGUUUAUAGGCGAAAGCCUUGGGAGAAGGCGGAAUGCUAC [Xeonanis - 20 Mod63] (Eterna round: R96, puzzle: Same State NG 2)
apparent KD of MS2 coat protein (input ligand: FMN 200 uM): 10.4 nM
apparent KD of MS2 coat protein [1]: 12.3 nM
apparent KD of MS2 coat protein (input ligand: none): 18.8 nM

CCGGACAUGAGGAUCACCCAUGUCGACGGAUACCCUUGGGCAUAGGAUAUCUGGAAUUAAAAGAAAGAGAAGGGUGAUCCAAGG [Qusoinrege] (Eterna round: R96, puzzle: Same State NG 3)
apparent KD of MS2 coat protein (input ligand: FMN 200 uM): 23.6 nM
apparent KD of MS2 coat protein [1]: 40.8 nM
apparent KD of MS2 coat protein (input ligand: none): 40.4 nM

AUUAUUAAUGCAGGAUAUGAUUAACAUGAGGAUCACCCAUGUGGUGUUGUGAGUAAGGAGAGUGAUCAGAAGGGCAUUUUUAUU [JMF's solution 13] (Eterna round: R96, puzzle: Same State NG 2)
apparent KD of MS2 coat protein (input ligand: FMN 200 uM): 1020 nM
apparent KD of MS2 coat protein [1]: 353 nM
apparent KD of MS2 coat protein (input ligand: none): 808 nM

UGGUACAUGGGAGGAUAUGGGCAAGAGACAUGAGGAUCACCCAUGUAUUAAAAGCCGAAAGGCAUCUAGAAGGCCCAUGUACCU [JL SSNG1 3.86] (Eterna round: R96, puzzle: Same State NG 2)
apparent KD of MS2 coat protein (input ligand: FMN 200 uM): 13.3 nM
apparent KD of MS2 coat protein [1]: 55.9 nM
apparent KD of MS2 coat protein (input ligand: none): 86.7 nM

AUUAUUUGUGCAGGAUAUGAUUAACAUGAGGAUCACCCAUGUGGUGUUGUGAGUAAGGAGAGUGAUCAGAAGGGCAUUUUUUUU [JMF's solution 61] (Eterna round: R96, puzzle: Same State NG 2)
apparent KD of MS2 coat protein (input ligand: FMN 200 uM): 590 nM
apparent KD of MS2 coat protein [1]: 476 nM
apparent KD of MS2 coat protein (input ligand: none): 478 nM

GUGGAGGGUUGAGGAUAUUGAAUACAUAUGUUUAACAUGAGGAUCACCCAUGUGGGUUGCGGUAUCGAGAAGGUAAGUUGCUGG [salish99_SSNG2_r04_038] (Eterna round: R96, puzzle: Same State NG 2)
apparent KD of MS2 coat protein (input ligand: FMN 200 uM): 105 nM
apparent KD of MS2 coat protein [1]: 94.2 nM
apparent KD of MS2 coat protein (input ligand: none): 89.3 nM

GCUAGAAUUAAUGCUAACAUGAGGAUCACCCAUGUAUGUUGGCAGGAUAUCGUUUGCUUUGCAAACGAGAAGGGCCAUACUAGC [JL SSNG3 1.09] (Eterna round: R96, puzzle: Same State NG 3)
apparent KD of MS2 coat protein (input ligand: FMN 200 uM): 20 nM
apparent KD of MS2 coat protein [1]: 14 nM
apparent KD of MS2 coat protein (input ligand: none): 26.3 nM

AACAAUCUAUUUGAGGAUAUCAUGAAAUAAACAUGAGGAUCACCCAUGUGCAGGAAAACUGCAUAUGAGAAGGCAGAUAGAUUGA [salish99_ss2_r3_025] (puzzle: Same State 2)
apparent KD of MS2 coat protein [2]: 25.4 nM
apparent KD of MS2 coat protein [3]: 30.2 nM
apparent KD of MS2 coat protein [4]: 24.1 nM

UACCUACCAGGAGGAUAUACAAACCCGAAAGGAGUAGAAGGCCUGAGUACUAACAUGAGGAUCACCCAUGUAGCGCCAGUUCGC [Eternabot solution 10] (Eterna round: R96, puzzle: Same State NG 1)
apparent KD of MS2 coat protein (input ligand: FMN 200 uM): 18.2 nM
apparent KD of MS2 coat protein [1]: 15.1 nM
apparent KD of MS2 coat protein (input ligand: none): 17.4 nM

UUCUCCUUUUUUUACAUGAGGAUCACCCAUGUUUACCCUACGUAGGAUAUCGAUGAGUGUUUGUACGAGAAGGACGUAGUAAGU [JR_SSND3_Sub058] (Eterna round: R96, puzzle: Same State NG 3)
apparent KD of MS2 coat protein (input ligand: FMN 200 uM): 37.4 nM
apparent KD of MS2 coat protein [1]: 106 nM
apparent KD of MS2 coat protein (input ligand: none): 137 nM

CGCUGUCACGCAGGAUAUGCAUUGGAUUACAAUGCAGAAGGGCGAUCACAUGAGGAUCACCCAUGUGUAGACAGUGAAGAAGAG [MOD2 JMF Solution 3] (Eterna round: R96, puzzle: Same State NG 1)
apparent KD of MS2 coat protein (input ligand: FMN 200 uM): 46.1 nM
apparent KD of MS2 coat protein [1]: 479 nM
apparent KD of MS2 coat protein (input ligand: none): 480 nM

GAGAAUCUAUCUCAGGAUAUCAUGUCAAAGACAUGAGGAUCACCCAUGUACCAGGAAACUGGUUAUGAGAAGGGAGAUAGAUUCA [Mat - Same State 2 - Mod - D35] (puzzle: Same State 2)
apparent KD of MS2 coat protein [2]: 103 nM
apparent KD of MS2 coat protein [3]: 26.2 nM
apparent KD of MS2 coat protein [4]: 224 nM

UAGGAUCAACGAGGAUAUAAUAGGUUCAAUUUUUUAUAUUGUUUACAUGAGGAUCACCCAUGUUAUUAGAAGGCGUAUGGGAUU [JR_SSNG2_Sub084] (Eterna round: R96, puzzle: Same State NG 2)
apparent KD of MS2 coat protein [1]: 39.9 nM

ACAUGAGAAGGAGGAUAUUUUGUACCUACAUGUGACAUGAGGAUCACCCAUGUGGUAAGUAUGAGAAAGAAGGCCUAGAUAUGU [Equivalence 15 - Jieux - Same State NG 2] (Eterna round: R96, puzzle: Same State NG 2)
apparent KD of MS2 coat protein (input ligand: FMN 200 uM): 21.3 nM
apparent KD of MS2 coat protein [1]: 21 nM
apparent KD of MS2 coat protein (input ligand: none): 36.3 nM

GGUCCAGCCUGAGCUGGACCGAAGCAUGUACAUGAGGAUCACCCAUGUCAUGUACAAGCUUUUUGCUCGUCUUAUUG [JL-shm-2.09 JL Mod] (puzzle: Sensor for hsa-mir-208a)
apparent KD of MS2 coat protein [2]: 307 nM
apparent KD of MS2 coat protein [3]: 14.9 nM
apparent KD of MS2 coat protein [4]: 285 nM

UUAAUGAUGUAAGGAUAUACAUGAGGAUUUCUCGUAGAAGGUACAGGACAUGAGGAUCACCCAUGUGUCGCUCCGUAGAGCGUA [JL SSNG1 1.08] (Eterna round: R96, puzzle: Same State NG 1)
apparent KD of MS2 coat protein (input ligand: FMN 200 uM): 349 nM
apparent KD of MS2 coat protein [1]: 414 nM
apparent KD of MS2 coat protein (input ligand: none): 525 nM

GCUAGAAAUAAUGCCAACAUGAGGAUCACCCAUGUAUGUUGGCAGGAUAUCGUAUGCAAAGCAUACGAGAAGGGCUAAACUAGC [Mat - Same State NG 3 - JL Mod - D9] (Eterna round: R96, puzzle: Same State NG 3)
apparent KD of MS2 coat protein (input ligand: FMN 200 uM): 217 nM
apparent KD of MS2 coat protein [1]: 190 nM
apparent KD of MS2 coat protein (input ligand: none): 231 nM

GUACAUAUCAGAGGAUAUCACGUCGUUUAGACGUGAGAAGGCUGAUCACACAUGAAUAUUAAUACAUGAGGAUCACCCAUGUAC [SSNG1/13-A3] (Eterna round: R96, puzzle: Same State NG 1)
apparent KD of MS2 coat protein (input ligand: FMN 200 uM): 23.8 nM
apparent KD of MS2 coat protein [1]: 31.2 nM
apparent KD of MS2 coat protein (input ligand: none): 32.7 nM

GCGGAGAGGUAAGGAUAUCCAUGGAAGAAACAUGAGGAUCACCCAUGUAGGAAGAAGACUAGGAGGGAGAAGGUACCGGGACGC [AK SSNG2-V2-20.1] (Eterna round: R96, puzzle: Same State NG 2)
apparent KD of MS2 coat protein (input ligand: FMN 200 uM): 29.2 nM
apparent KD of MS2 coat protein [1]: 26.2 nM
apparent KD of MS2 coat protein (input ligand: none): 40.5 nM

GGUCCAUCAUGAGGAUAUGGCACCUUAUUGGUGCCAGAAGGCAUGUAAAUUAUAAUAACAUGAGGAUCACCCAUGUAUUGGACC [Eli NG1ss - 95] (Eterna round: R96, puzzle: Same State NG 1)
apparent KD of MS2 coat protein (input ligand: FMN 200 uM): 44.6 nM
apparent KD of MS2 coat protein [1]: 218 nM
apparent KD of MS2 coat protein (input ligand: none): 492 nM

CGUCCGGCCUGUGCUGGCCGGUGGCGUGUACAUGAGGAUCACCCAUGUUCUUGUGCUGGCUGUUUGCUCGUCUUGUG [salish99_mir208a_r3_025] (puzzle: Sensor for hsa-mir-208a)
apparent KD of MS2 coat protein [2]: 44.8 nM
apparent KD of MS2 coat protein [3]: 23 nM
apparent KD of MS2 coat protein [4]: 58.2 nM

CUGAGCAAUCGAGGAUAUCACGUCGAAUAGACGUGAGAAGGCGAUCAUAACAUGAGGAUCACCCAUGUAUUACAUGAAGCUCAG [SSNG1/4-A1] (Eterna round: R96, puzzle: Same State NG 1)
apparent KD of MS2 coat protein (input ligand: FMN 200 uM): 11.7 nM
apparent KD of MS2 coat protein [1]: 12.8 nM
apparent KD of MS2 coat protein (input ligand: none): 16.2 nM

UCAUGGUUUUUGCUCGUUUUAUGUGUUGAACAUGAGGAUCACCCAUGUAUUGUACGAUCCAGUUAGAUGGUGGUUUG [JR_SHM208A_Sub043] (puzzle: Sensor for hsa-mir-208a)
apparent KD of MS2 coat protein [2]: 235 nM
apparent KD of MS2 coat protein [3]: 85.8 nM
apparent KD of MS2 coat protein [4]: 469 nM
